{
  "source": "paper PMC12442453",
  "binders": {"B1": {"name": "Db-Fc 1.3 (Fc fusion)", "VH": "EVQLVESGGGLVQPGGSLRLSCAASGFNLRSYYMHWVRQAPGKGLEWVASISPHYGYTYYADSVKGRFTISADTSKNTAYLQMNSLRAEDTAVYYCARHGYSAMDYWGQGTLVTVSS", "VL": "DIQMTQSPSSLSASVGDRVTITCRASQSVSSAVAWYQQKPGKAPKLLIYSASSLYSGVPSRFSGSRSGTDFTLTISSLQPEDFATYYCQQSSDSLFTFGQGTKVEIK"}},
  "biological_target": "T1, human EPOR, endogenous on TF-1 cells (human (endogenous in TF-1)) (UniProt P19235)",
  "T1 sequence": "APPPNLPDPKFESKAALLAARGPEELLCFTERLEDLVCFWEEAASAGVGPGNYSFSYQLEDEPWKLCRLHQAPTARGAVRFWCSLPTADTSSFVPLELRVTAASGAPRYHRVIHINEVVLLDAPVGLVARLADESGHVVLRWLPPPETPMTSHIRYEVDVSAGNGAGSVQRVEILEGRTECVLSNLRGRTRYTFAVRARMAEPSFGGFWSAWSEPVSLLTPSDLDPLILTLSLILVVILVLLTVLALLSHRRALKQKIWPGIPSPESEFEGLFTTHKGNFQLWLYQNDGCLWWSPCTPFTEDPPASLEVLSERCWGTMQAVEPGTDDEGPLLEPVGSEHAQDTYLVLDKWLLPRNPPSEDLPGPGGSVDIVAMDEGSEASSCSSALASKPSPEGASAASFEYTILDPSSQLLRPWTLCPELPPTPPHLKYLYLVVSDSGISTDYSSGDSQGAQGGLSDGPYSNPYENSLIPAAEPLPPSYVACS",
  "data": [
    {"binder": "B1", "values": [
      {"measurement": "UT-7/Epo cell proliferation, EC50; Tb-Fc2 fraction of variant 1.3 (putative tetramer)", "result": 2, "unit": "nM"},
      {"measurement": "UT-7/Epo cell proliferation, maximum response; Tb-Fc2 fraction of variant 1.3 (putative tetramer)", "result": "2.2e+06", "unit": "RLU"}
    ]}
  ]
}
